Measurements published in patent publication US20120304318A1, “CANCER DIAGNOSIS AND TREATMENT” (CAMBRIDGE ENTERPRISE LTD, priority 2009, published 2012).

B1: OMD-myc tag: OMD with myc tag in pIRES2-EGFP vector, stably transfected into EJ28 cells (protein, UniProt Q99983 21-421, looked up)
Osteomodulin: QYETYQWDEDYDQEPDDDYQTGFPFRQNVDYGVPFHQYTLGCVSECFCPTNFPSSMYCDNRKLKTIPNIPMHIQQLYLQFNEIEAVTANSFINATHLKEINLSHNKIKSQKIDYGVFAKLPNLLQLHLEHNNLEEFPFPLPKSLERLLLGYNEISKLQTNAMDGLVNLTMLDLCYNYLHDSLLKDKIFAKMEKLMQLNLCSNRLESMPPGLPSSLMYLSLENNSISSIPEKYFDKLPKLHTLRMSHNKLQDIPYNIFNLPNIVELSVGHNKLKQAFYIPRNLEHLYLQNNEIEKMNLTVMCPSIDPLHYHHLTYIRVDQNKLKEPISSYIFFCFPHIHTIYYGEQRSTNGQTIQLKTQVFRRFPDDDDESEDHDDPDNAHESPEQEGAEGHFDLHYYENQE
modifications: myc tag
notes: OMD with myc tag in pIRES2-EGFP vector, stably transfected into EJ28 cells
B2: OMD: human osteomodulin protein (SEQ ID NO:1), stably overexpressed in cells from an expression plasmid (protein, listed as Homo sapiens)
chain: MGFLSPIYVIFFFFGVKVHCQYETYQWDEDYDQEPDDDYQTGFPFRQNVDYGVPFHQYTLGCVSECFCPTNFPSSMYCDNRKLKTIPNIPMHIQQLYLQFNEIEAVTANSFINATHLKEINLSHNKIKSQKIDYGVFAKLPNLLQLHLEHNNLEEFPFPLPKSLERLLLGYNEISKLQTNAMDGLVNLTMLDLCYNYLHDSLLKDKIFAKMEKLMQLNLCSNRLESMPPGLPSSLMYLSLENNSISSIPEKYFDKLPKLHTLRMSHNKLQDIPYNIFNLPNIVELSVGHNKLKQAFYIPRNLEHLYLQNNEIEKMNLTVMCPSIDPLHYHHLTYIRVDQNKLKEPISSYIFFCFPHIHTIYYGEQRSTNGQTIQLKTQVFRRFPDDDDESEDHDDPDNAHESPEQEGAEGHFDLHYYENQE
B3: PRELP: human PRELP protein (SEQ ID NO:2), stably overexpressed in cells (myc tagged in EJ28) (protein)
chain: QPTRRPRPGTGPGRRPRPRPRPTPSFPQPDEPAEPTDLPPPLPPGPPSIFPDCPRECYCPPDFPSALYCDSRNLRKVPVIPPRIHYLYLQNNFITELPVESFQNATGLRWINLDNNRIRKIDQRVLEKLPGLVFLYMEKNQLEEVPSALPRNLEQLRLSQNHISRIPPGVFSKLENLLLLDLQHNRLSDGVFKPDTFHGLKNLMQLNLAHNILRKMPPRVPTAIHQLYLDSNKIETIPNGYFKSFPNLAFIRLNYNKLTDRGLPKNSFNISNLLVLHLSHNRISSVPAINNRLEHLYLNNNSIEKINGTQICPNDLVAFHDFSSDLENVPHLRYLRLDGNYLKPPIPLDLMMCFRLLQSVVI

Tests used:
EJ28 cells [1] = assay: Apoptosis of stably transfected EJ28 cells with or without Mitomycin C (caspase activity); type: cell-based; details: for endogenous apoptosis: stable overexpression in EJ28, no drug; for apoptosis induced by Mitomycin C: stable overexpression in EJ28, 1 μg/ml Mitomycin C, caspase activity
Protocol: Two control EJ28 cells, two OMD stably-transfected EJ28 cells, and a PRELP stably-transfected EJ28 cells are treated with 1 μg/ml of Mitomycin C. Also, as a positive control, EJ28 cells are treated with higher concentration 5 μg/ml of Mitomycin C as a positive control. Then, the ratios of apoptotic cells were determined by measuring caspase activities.
(§1) OMD and PRELP were subcloned into pIRES2-EGFP (Clontech). A bladder cancer cell line, EJ28, was stably transfected with these plasmids by selection with G418. Two independent clones were derived for each plasmid (except MT-Prelp, where it was only possible to derive one). Then, the properties of these cells were examined. […] These cells include apoptotic ones. This contrasted with control cells, which were flat and cuboidal. […] Two independent clones of OMD and EGFP expressing EJ28 cells, two independent control EJ28 clones expressing EGFP, and a PRELP with myc tag and EGFP expressing EJ28 cells were treated with 1 μg/ml Mitomycin C. Also, EGFP expressing EJ28 cells were treated with higher concentration of Mitomycin C (5 μg/ml) as a positive control.

[2] = test system: EJ28 bladder cancer cells; assay: EJ28 xenograft in nude mice, tumour volume; type: in vivo, MF1 nude mice; details: day 18
Protocol: To evaluate in vivo effect of OMD or PRELP activation in cancer cells, xenograft experiments were performed using nude mice. EJ28 bladder cancer cells expressing OMD or EJ28 control cells were injected into the mice and cancer development was monitored for three weeks. […] This observation confirms the utility of OMD/PRELP based cancer treatment.
FIG. 15 Effect of xenograft of EJ28 cells overexpressing OMD protein. EJ28 bladder cancer cells or EJ28 cells overexpressing OMD were inoculated into nude mice and then cancer development was monitored for three weeks. The result at 18 days is shown.
Six- to eight-week-old male MF1 nude mice were obtained from Royal Free Hospital London UK. Tumors were induced by inoculation of 5×10^6 EJ28 cancer bladder cells s.c. on the back. EJ28 tumour-bearing MF-1 mice (n=5) were injected with cells subcloned with stably transfected with OMD-myc tag in pIRES2-EGFP vector, using Lipofectamine 2000 (Invitrogen). […] Tumour dimensions were measured continuously using a caliper and tumour volumes were calculated using the equation: volume=(π/6)×a×b×c, where a, b, and c represent three orthogonal axes of the tumour. Animals were assessed for tumour growth over 25-day period.
The biological activity of OMD on EJ28 tumour-bearing mice was determined by measuring changes in tumour volume.

[3] = test system: EJ28 bladder cancer cell line; assay: Proliferation and cell cycle of stably transfected EJ28 cells (cell counting, BrdU incorporation, FACS); type: cell-based
Source text: Also disclosed herein are novel methods for treatment of cancer based on activation of OMD and/or PRELP. […] If so, it can be inferred that the activation of OMD or/and PRELP would inhibit tumourigenesis and provide novel treatment of cancer. […] To this end, OMD or PRELP was stably over-expressed in the bladder cancer cell line EJ28.
as §1

HEK 293 cells = assay: Mitomycin C induced apoptosis in normal cells (annexin and caspase activity assays); type: cell-based; details: stable overexpression in HEK 293; 1 ug/ml mitomycin C, 24 h
Protocol: FIG. 10. OMD expression protects normal cells from apoptosis, whilst PRELP expression has no effect. HEK 293 cells stably transfected with either CAT (a control), OMD or PRELP, and assayed to measure the level of apoptosis they underwent in response to treatment with 1 ug/ml mitomycin C. (a) Annexin assay. Cells were treated one dose of the drug, and 24 hours later, they were trypsinized, incubated in the presence of Alexafluor-647 conjugated annexin and propidium iodide, and examined by flow cytometry. The annexin-positive, PI-negative subpopulation, comprising live cells that were in the process of undergoing apoptosis, was identified. (b) Caspase activity assay. One dose of the drug was administered, and 24 h later, cells were incubated in the presence of a substrate that, upon cleavage by caspases, was converted into a luminescent product. Luminescence was quantified and taken to be proportional to caspase activity. In both (a) and (b), error bars refer to standard deviations, and statistical analysis consisted of t-tests.

EJ28 cells [4] = assay: Anchorage-independent growth in soft agar; type: cell-based; details: stable overexpression in EJ28; 2 weeks; relative to control cells
Protocol: FIG. 14. OMD abolishes, and PRELP inhibits, anchorage-independent growth of EJ28 cells. Cells were seeded in DMEM+0.3% agar, overlying a lower layer of DMEM+0.6% agar. 3000 cells were seeded into wells of a 6-well dish in triplicate. Plates were incubated for 2 weeks, and colonies were counted. Error bars are standard deviations. Statistical analysis consisted of one-way ANOVA, with post-hoc Newman-Keuls testing. Letter groupings, “a”, “b” etc, refer to the results of the Newman-Keuls test.
OMD and PRELP also affect the anchorage-independence, a hallmark of cancer cells. Anchorage-independence was measured by seeding cells in soft agar, incubating them for 2 weeks and counting the number of resultant colonies.

[5] = stable overexpression in EJ28 vs control cells

Molecule | cell death (EJ28 cells [1]; EGFP expressing EJ28 cells, 5 μg/ml Mitomycin C, positive control) | tumour size ([2]; EJ28 cells stably transfected with OMD-myc tag inoculated s.c. in MF-1 nude mice, control 37.91±16.57) [mm^3] | tumour growth ([2]; OMD-myc tag transfected EJ28 cell line vs vector control) | endogenous apoptosis (EJ28 cells [1]) | apoptosis induced by Mitomycin C (EJ28 cells [1]) | cell cycle arrest / inhibition ([3]; stable overexpression in EJ28) | proportion of cells in S-phase (FACS analysis) ([3]; stable overexpression in EJ28) | BrdU incorporation [3, 5] | proliferation (cell-counting assay) [3, 5] | Mitomycin-C mediated apoptosis of normal cells (HEK 293 cells) | anchorage-independent growth / colony-forming ability in soft agar (EJ28 cells [4])
CO[C@@]12[C@H](COC(N)=O)C3=C(C(=O)C(C)=C(N)C3=O)N1C[C@@H]1N[C@@H]12 [Mitomycin C, reference compound] | massive cell death | – | – | – | – | – | – | – | – | – | –
B1 | – | 1.60±1.0 | completely inhibited | – | – | – | – | – | – | – | –
B2 | – | – | – | increased cell death by apoptosis | markedly sensitized | enhanced cell cycle arrest at G1 phase | lower proportion of cells in S-phase | lower rate of BrdU incorporation | proliferated more slowly than control cells | protected normal cells | absolutely abolished
B3 | – | – | – | higher rates of endogenous apoptosis | even higher rates of apoptosis | cell cycle inhibition was not observed | – | – | inhibit proliferation | had no effect | a third
